Assays:
VRC34.01_combo1 Fab = assay: BLI; settings: n = 3 independent experiments; parent: est. 1.0; read off a plot
[1] = target: fusion peptide V1 (ITC peptide) (HIV-1); assay: ITC
[2] = target: fusion peptide V1 (ITC peptide); assay: ITC; settings: parent: est. 33; read off a plot
[3] = target: BG505 SOSIP trimer with FP v3 (AIGLGAMF); assay: yeast display FACS sort with NGS; settings: Round 3 high-affinity sort, read off a plot
[4] = target: BG505 SOSIP trimer with FP Thai (AVGIGAMI); assay: yeast display FACS sort with NGS; settings: Round 3 high-affinity sort, read off a plot
[5] = target: BG505 SOSIP trimer with FP v1 ([…]); assay: yeast display FACS sort with NGS; settings: Round 3 high-affinity sort, VH-SSM library; parent: est. 1.8; read off a plot
[6] = target: fusion peptide FP_v1 (V1: […]) (HIV-1); assay: ITC
[7] = VH-SSM library, parent: est. 1.4
[8] = VL-SSM library, parent: est. 0.4

## His-tagged fusion peptide (residue 512-521), wild type (BLI peptide) A512G
VRC34.01_combo1 Fab
  ratio to parent: 0.88

## His-tagged fusion peptide (residue 512-521), wild type (BLI peptide) A517G
VRC34.01_combo1 Fab
  ratio to parent: 0.97

## His-tagged fusion peptide (residue 512-521), wild type (BLI peptide) F519G
VRC34.01_combo1 Fab
  ratio to parent: 0.82

## His-tagged fusion peptide (residue 512-521), wild type (BLI peptide) G514A
VRC34.01_combo1 Fab
  ratio to parent: 0.97

## His-tagged fusion peptide (residue 512-521), wild type (BLI peptide) G516A
VRC34.01_combo1 Fab
  ratio to parent: 0.14

## His-tagged fusion peptide (residue 512-521), wild type (BLI peptide) I515A
VRC34.01_combo1 Fab
  ratio to parent: 0.12

## His-tagged fusion peptide (residue 512-521), wild type (BLI peptide) I515G
VRC34.01_combo1 Fab
  ratio to parent: 0.01

## His-tagged fusion peptide (residue 512-521), wild type (BLI peptide) V513A
VRC34.01_combo1 Fab
  ratio to parent: 0.47

## His-tagged fusion peptide (residue 512-521), wild type (BLI peptide) V513G
VRC34.01_combo1 Fab
  ratio to parent: 0.01

## His-tagged fusion peptide (residue 512-521), wild type (BLI peptide) V518A
VRC34.01_combo1 Fab
  ratio to parent: 0.97

## His-tagged fusion peptide (residue 512-521), wild type (BLI peptide) V518G
VRC34.01_combo1 Fab
  ratio to parent: 0.83

## VRC34.01 (template antibody), IgG
[1]
  Kd: 33 nM

## VRC34.01 (template antibody), IgG H:E2K
[2]
  Kd: 27 nM

## VRC34.01 (template antibody), IgG H:E2K; H:A33P; H:T59F
[2]
  Kd: 2.2 nM

## VRC34.01 (template antibody), IgG H:T59F
[2]
  Kd: 7.5 nM

## VRC34.01 Fab H:A33P
[3]; [7]
  enrichment: 55

## VRC34.01 Fab H:K12A
[4]; VH-SSM library, parent: est. 0.7
  enrichment: 450

## VRC34.01 Fab H:T58Q
[5]
  enrichment: 400

## VRC34.01 Fab H:T59F
[3]; [7]
  enrichment: 480

## VRC34.01 Fab H:T59Y
[3]; [7]
  enrichment: 2500

## VRC34.01 Fab L:D1Y
[4]; [8]
  enrichment: 580

## VRC34.01 Fab L:S92T
[3]; VL-SSM library, parent: est. 1.7
  enrichment: 110
[4]; [8]
  enrichment: 440

## VRC34.01 VH_T59F, IgG (antibody)
[1]
  fold higher affinity than VRC34.01: 4 fold

## VRC34.01-HC-E2K (antibody)
[6]
  Kd: 28 nM

## VRC34.01-HC-T59F (antibody)
[6]
  Kd: 7.7 nM
  stoichiometry N: 0.8

## VRC34.01_combo1 (VH_E2K_T59F), IgG (antibody)
[1]
  fold better binding than VRC34.01: 6 fold

From paper PMC10663459
